pKd: −log10 of the molar value.
Target: mutant human FcγRIIIa (V158) ectodomain (amino acid residues 1–175) with nine amino acid mutations a (human)
Assay: SPR

pKd: 5.81
koff: 0.062 s⁻¹
kon: 40000 M⁻¹ s⁻¹
Substance: Expi293-derived adalimumab (antibody)

From PMC9850916
